# According to the DeepSol protein solubility set:
# Experiment: soluble on expression in E. coli; label from the status in PepcDB or PDB records
row,Sequence,soluble on expression in E. coli
1,NPMSVLLGKAEQLNLLYDKYWDDSMRLNPLQATLQGDAYHGDRMPNFLSAEFRKQHHDFIEKWLKKVEMVGADGLDGQAFISYQIFVRDARNSLHAERYPNWMLPINQFYNIANVAVVLGSGNGAQPFNTVQDYDNWAHRSLGIPALFNQAIVNMRLGMKSGVVQPKVLMEKVIPQLDSIIKPTAEETLFWVPIRNMSVTFSKENRQRITAEYKSIIEYRLLPAYRALRNFIATEYLPVCRDSVGLSALPGGASWYAYTVRQSTTTNMTPEQIHQLGLKEVERLQAEIQSVMRQLNFNGSMQKFFSFMQNNEYFTFGSEKEMLAYYRDLRTRVEARVPALFSLVPKAGFEILPVESFRAPSAAAGSYMPPSSNRRHNGVFYANTNDLSSRRTWNAEKLFLHQGIPGYHFQLGLQQELRNLPKFRRLGGETAFIEGWGLYAESLGKELGLYQDAYNYFGYLQDALSRAIRLVVDTGLHTKGWTRAQVVDYIVENSATSPIEAEAEVDRYIAIPGQALAYKVGELKIHQLRQYAQLTLGPMFDLREFHAEILKDGSVPLDILQQKIERWIAVK,not soluble
2,MSLKKPLIVQKFGGTSVGSIERMQTVAEHIIKAKNDGNQVVVVVSAMAGETNRLVGLAQQVDSVPNARELDVLLSAGEQVSMALVAMTLHKMGYAARSLTGAQANIVTDNQHNDATIKHIDTRTITELLEQDFIVIVAGFQGINENGDITTLGRGGSDTSAVALAGALNADECQIFTDVDGIYTCDPRIVPSARKLDVIDFPSMEEMARKGAKVLHLPCVQYAWKHAVPLRVLSTFEVNQGSLIKGSAATHAVCGIALQRDMALIRVESESFPSIIKQCQMLGIEVCTTIDEPTHSAFVIKRDAYAKLQLVGADKIRGSEPVSLITKVGIQAGALVAHARQTLAQHGIDVRYVSASEQSSMLMLDPANVDRAANILHETYVTSEIPQEFGLKQTFLGEGHHHHHH,not soluble
3,MVKATAIDMSLSDIISTNRKNKKVVKKPIKKSAGGIRKRGNASNVGTPRRQSGGTSRGGGRMGNTVRRSAGGSSNDNKQVRINISNLAETVISSDLQELFGAFNLHKVSVNFNENGGAAGTGDITLKKYDADRLIQKFAGVALDGKVMHFAVIESSNFARKPEIRGTPNRRQSSGKPINRKVANPPRRQNAAKPPVKKGKKPAREQKPPKTAEQLDAELDAYMSRSA,not soluble
4,MGSDKIHHHHHHMERLQALEAWAARQLGQETVDIAPASADASFRRYFRVTAKGRDYIVMDAPPAHEDCGPFIAVARLFGDAGVHVPEVLAQDLDQGFLLLTDLGHTTYLSALNESTARELYLAANDALIRIQLASRPGVLPDYDRALLTRELMLFPEWYVAKHLGVELNAAQRATLDTVFERLLTNNLAQPQVYVHRDWHSRNLMVSDPNPGILDFQDAVFGPITYDLASIYRDAYIQWDEERQLDWVIRYWEKARAARLPVAADFGDFWRDFEWMGAQRHLKVLGIFARLYHRDGKDGYLKDMPLVMHYLRSVCGRYDELKPLLLLLDALQDRQPQAGYTF,not soluble
5,MSLASISLPVGGRLLPYELTGRPVPLKGRDAAAFPRVAFAAAHVVADPLADNDPWVTPAIDWERTLAFRHRLWDLGLGVAESMDTAQRGMGLGWPEARELIGRSLSEARGRSGALIACGAGTDHLVPGPNVTIDEILRAYESQIETIEAEGGRIILMASRALAAAAKGPEDYFRVYDRILSQVKEPVIIHWLGEMFDPALEGYWGNADHMAAMKTCLDVIEAHAAKVDGIKISLLSKKKEIVMRRQLPKGVRMYTGDDFNYAELISGDEEGYSDALLGIFDAIAPVASAALEALGGGRNGEFFELLDPTVPLSRHIFKAPTRFYKTGVVFLAYLNGLQDHFAMIGGQQSARSLVHLAELFRLADRAGVLQDPELAAGRMRRVLAVNGVAEGHHHHHH,soluble
6,PDMKESMSDLYYEMISSAQKSIWIATPYFVPNESIRTALKAAATKGVEVRVMVPEKNDSFLTQYASRSYFPELLLEGIEVYSYQKGFMHQKVMIIDGDLASVGTANMDMRSFQLNFEVNVFFTDAEAIRTLEAHFEEDMQESEKLS,soluble
7,MSLKLYYMPAACSLSPHIVANELELDIEFVRVNFKDHKTEGGQDYYDINPNGYIPALDVGNGAMLFEGPAIVQYMADLKPQSGLAPANGTFERYKLQEMLSFLSTEIHKGFIPLLYAKQAGAYLETATPKLEKRYAWIDNLLASQRFLMGENFTVADAYLFALTSWGQASWLKSYYGADIHFDDLLNLRGWYERVKERDAVKQSILEEGLSLSEGHHHHHH,soluble
8,MGSDKIHHHHHHMREEAPSRAQRVIDNNDILFQCVRPYQKNNYIHRILNTSNQQWVASTGYAQIRTTELPNYIYHLLNTDEFNRKVMVRCTGSSYPAINSEDLATIHLYYTPDKKEQLKISRLLDLLDKRIATQNKIIEKLQSLIKGIAQHCIKESTSGNTYVKLGDICQITTGKLDANAQVDNGIYPFFTCAEQPFKIDSFAFDTEALLISGNGANLGYINYYKGKFNAYQRTVSIR,not soluble
9,GMADPKELQDKFWKALKSDRTVMLGLDGVEDGHARPMTAQIEGDSGGPIWFFTSKDNALIAMLGQGRRVIGAFSSKGHDLFASISGSLREDTDPAVVDRLWNPYVAAWYEGGKDDPKLALLRLDADHAQIWLNGSSLLAGIKVLLGV,soluble
10,MNAITPTPGIDKEAFDRAANAVRRLCGWHIFPIIEETITLDSPGDSLLVLPTKHLVEIINVTIDGTTYPLSDFRSSPDGLLVKRHGRFPRGIAMVTVTMKHGYEKPTEILGVINDMARRANESNLTQLNVGGISVGATNSATPQSSEWRIVDELRLGPLP,not soluble
11,MTCDDWNSFIQVNIYGKTIEGLQQQGVVLESLLNNIGCSKLWIVEGSMYTSLTNESSTYSESTIEPVVPLSTTLATNKLPRFSTPAVGHSKYNSAKNFTLNLAEKLSEILSDDDKTDKCLENSYQSETSREDVIQDLLEEMVQTVADVDQAPILLSTTLANIGVPRFSTPIKPQNGLDRKFTMNMTERISEIDSNYQGYELFEDSSNDCTTLIPNCQEVESSFYRALPEAASSIVPYQEGKRRSSRRLSTLSSLKETVKIEPTVSKLTKRRRLTSIESSNETMVPHSEPIPLDKDGFSYEQPINEYGDNESFLSAKSLCTEPRSSISEDVKPVLKATDSERTVSIGNHIVDHHPVIELSTEHNTMGEFQYDFDDEDTVLIGNYEEVGTEIDEAEQQNEENSEDDEEDESPIPSTKKVSFAVPVVQRLNKRNEQMNKNHIIKCNFEGCKQILSWKLRYGKQRLLDHAMTHENEKCLVCRTCEYSCSTHPQMKYHYQKMHPEVRCDGFNIQKVFNIEFDEVAIFDLFQKCFGAHSSIIGNIGKPRRYKKCKNSLKNTPEVDNENVDKDSPGPSHDLF,not soluble
12,TCCHGHGHGHDHGHRHAPRPAVAAIGTLAGNAELRWSDLRIEAMDCPTEERLIRDALGRQPAVESLEFNLMQRLLRVQHRFDSVEPLQKLIAGLGMQAVPLDAGENTDGPSQAPA,not soluble
13,MLKRPIHLSHDFLAEVVDKSSVVVDATMGNGNDTAFLAQLAKKVYAFDVQEQAIRKTSERLAQLGLSNAELILAGHEAVDQYVTEPVRAAIFNLGYLPSADKSIITLPNTTLQALSKLLTLLMVGGRIAIMVYYGHDGGSLEKDALLDFVKQLDQRKVSAMLYQPLNQVNTPPFLIMLEKLADF,not soluble
14,MGSEKMIEICIDMEEGEPLGATPNDKLVITKIQAGTISEGKLRIGDQVKKVNGQNCKDCNDFFRALRFAAPCAKITVNRDEKKAEELEARVHIPEDRAKIIQRREGYVYELATLVWVQNGPKLGLGIKHFQNRVLVSRVDPGSLAEKCLVLGDHLCDVDGIPVSDKDVARDLLVKNIQEKGKVTFVVERPDSIDAKQWAKQALATNLMQPPSVQMNEDVKGIASQYRQALPGLKPPAKSAMSTGPNARRVSIIEQTQTHEIGHDHEGKALRKVK,soluble
15,MPLSPILRQILQQLAAQLQFRPDMDVKTVREQFEKSSLILVKMANEPIHRVEDITIPGRGGPIRARVYRPRDGERLPAVVYYHGGGFVLGSVETHDHVCRRLANLSGAVVVSVDYRLAPEHKFPAAVEDAYDAAKWVADNYDKLGVDNGKIAVAGDSAGGNLAAVTAIMARDRGESFVKYQVLIYPAVNLTGSPTVSRVEYSGPEYVILTADLMAWFGRQYFSKPQDALSPYASPIFADLSNLPPALVITAEYDPLRDEGELYAHLLKTRGVRAVAVRYNGVIHGFVNFYPILEEGREAVSQIAASIKSMAVA,soluble
16,MGSDKIHHHHHHMLQAFYTGLSGLNSYSKNLDNVSNNIANMNTAGYRGMDSFYQALGGDSDKPGLGAQISGLGYRFSVGDIRQTGNDFDLAITGTGFFALLDGEKVFYTRTGQFEFDQNNVLVDKNTGFKVAGIDSNGQLSEINLLSYQAIKPTATTKLSLTGNLSPLDDVHQISSAKMINSLGEEVDLSIKFTNEKATFPNQWKVEILDDKGIVLHSDSVKFGPDGTPEVGSGSFIFNLADSSGNTTPIDITVGTIGDFSAVTQTSATGVDSNVTLHAVDGKGVGQLVKRSFDPQGRVTLNYSNGDKVTPFTIAMVDFDDISTLSIESGTVFKASDLESRVLGKAGEGRFKQLATSSIEMSNVDLSQEFADMLVIQRGYQASSRILNVANQMIEQLYENTRGR,not soluble
17,ALENLQVEASCSVCLEYLKEPVIIECGHNFCKACITRWWEDLERDFPCPVC,soluble
18,QDNALKQVAAMAKIADRYVSAWGSEAQVEDDTIRRLLASLGYDTSSDDALLQSAEKKHKKDVVDPVLVVHQGSAIEVPLYLGVSARESEFDWRLQTEQGEVLEGYLQSQIVRDERAEGGPLVFALPNDLPLGYHTLLIARKRRKAPYEMTLIVTPQACYKQPALAQ,not soluble
19,MGSDKIHHHHHHMEIIAHRGFWNKESEKNTLTAIKRAIDNGYGFETDYRDNNGTIVISHNMPLGNEPTAEEIFRLYRDSGTESTLALNIKADGLQELLKDMLNTYQIKKYFLFDMSIPDTIDYILDNMNIATRHSEYEKEFPFYSQSSYVWMDCFKSEWISWGNLEEHLKSGKKVCIVSPELHRRPYKEVWNKYASFNHANLMLCTDFPMEADFFFNK,not soluble
20,MVDQAQDTLRPNNRLSDMQATMEQTQAFENRVLERLNAGKTVRSFLITAVELLTEAVNLLVLQVFRKDDYAVKYAVEPLLDGDGPLGDLSVRLKLIYGLGVINRQEYEDAELLMALREELNHDGNEYAFTDDEILGPFGELHCVAALPPPPQFEPADSSLYAMQIQRYQQAVRSTMVLSLTELISKISLKKAFQK,soluble
21,SLPTIIGLAAVARSGKDTVASMLMEHPEVATYALADPLKAGCQAIFGLSDAEAWSDEAKEKTIDLWGLSPRQLFQRAGTEWLRDHNADHWLLRADRQLNHKPVEPRPVSATELASPSASIWLGVQAFWGLTEAQTWQDDLRAAEDPFWNITPKEMFAIVDRYLSRDFPSYVSTRSKRAISTPTRPLTNAAGKSIFIIKDIRYENEAAFWRSHNGVIWHITRNNAIKVQSHSSEDGIEFRNGDISIENNDTIEELRKKVESAWSCVRVD,soluble
22,MAIYYNGLKIESNEEVYEPAEDTFLLAESLLDEVKSDDIVLDVGTGTGILALLAARRARFVVGLDINEKAINLAWKNAKINGIKNVVFILSDLFENIRGTFDLIVFNPPYLPGEEIKDKVDLALIGGKTGGEVISRFLGSVKDYLSSRGRILLIYSSLTGLDVEKAFKERGFSTSIVKRRRFFFEELYVMKAELSSRL,soluble
23,GNGIPPYAGAGDPARFTFNIVQNAKYWDKEHQYESLSDIRLHKFNAPAPGTFDFDESPVDGKKLELVSSKKIGFDGKFAGIAHDGEQFGLVTQDGSLFFTKDFDKATSFAHLDVPNGSDIHNTVDAAFFEPGGLAGIAQNKTLYGALVTKDVDDYIAWKDFLESSGDVMPLFDSKGRPELRTIRARMQYTMSVASDAKSDTFITVSVPHERAEQIVVSEFSKKDNKLVREGVLDGDYYPVGADMRGDVLYLLSKQHNCLVRVNMKDFTVKDAANLPVEGSDLAIVKDRAYILDGDTVHEVKL,not soluble
